Data published in US7320785B2, “Compositions and methods for modulation of DARPP-32 phosphorylation” (The Rockefeller University, priority 2001, dated 2008).

Columns and labels:
Assay type in all cases: biochemical, rat
phospho-Ser137-DARPP-32 [1] = assay: Dephosphorylation of phospho-Ser137-DARPP-32 by recombinant PP2C isoforms; details: phospho-Ser137-DARPP-32 as substrate; Mn^2+ or Mg^2+
[2] = pNPP hydrolysis by recombinant PP2C isoforms (phosphatase assay); details: for Vmax / kcat / Km: pNPP as substrate; for Km: 37° C.
Method: The activity of PP2C isoforms using pNPP as substrate was assayed as previously described (Brumel et al., 1997). […] The reaction was stopped by addition of 1 ml of 0.1 M NaOH, and the initial rate of p-nitrophenol release was determined spectrophotometrically at 405 nm (using a molar extinction coefficient of 18 000 M−1 cm−1).
(§1) Kinetic parameters (Km and Vmax) were determined from Lineweaver-Burk plots.
Legend Table 7. Enzymatic activities of PP2C isoforms assayed using pNPP as substrate. Phosphatase activity was measured using pNPP as substrate by the change in absorbance at 405 nm. Km and Vmax values were calculated from Lineweaver-Burk plots of the data.

phospho-Ser137-DARPP-32 [3] = assay: Dephosphorylation of phospho-Ser137-DARPP-32 by recombinant PP2C isoforms; details: [^32P]phospho-Ser137 DARPP-32 as substrate; in the presence of 10 mM Mn^2+
Method: The activity of PP2C isoforms using ^32P-DARPP (phosphorylated at Ser137) was assayed at 37° C. in a reaction mixture containing 25 mM Tris-HCl, pH 7.5, 10 mM MnCl2, 1% BSA, and […] substrate, in a total volume of […]. Reactions were stopped by addition of […] of 50% trichloroacetic acid. Samples were then incubated on ice for 30 min and centrifuged at 10,000 g for 10 min at 4° C. Radioactivity recovered in the supernatant was measured by Cerenkov counting in a scintillation counter (Beckman).
as §1
Legend Table 8. Enzymatic activities of PP2C isoforms assayed using [^32P]phospho-Ser137 DARPP-32 as substrate. Phosphatase activity was measured by the release of ^32P, and Km and Vmax values were calculated from Lineweaver-Burk plots of the data.

B1: PP2Ca: recombinant his-tagged alpha isoform of protein phosphatase 2C cloned from rat striatum (protein)
chain: MGAFLDKPKMEKHNAQGQGNGLRYGLSSMQGWRVEMEDAHTAVIGLPSGLETWSFFAVYDGHAGSQVAKYCCEHLLDHITNNQDFKGSAGAPSVENVKNGIRTGFLEIDEHMRVMSEKKHGADRSGSTAVGVLISPQHTYFINCGDSRGLLCRNRKVHFFTQDHKPSNPLEKERIQNAGGSVMIQRVNGSLAVSRALGDFDYKCVHGKGPTEQLVSPEPEVHDIERSEEDDQFIILACDGIWDVMGNEELCDFVRSRLEVTDDLEKVCNEVVDTCLYKGSRDNMSVILICFPNAPKVSAEAVKKEAELDKYLENRVEEIIKKQGEGVPDLVHVMRTLASENIPSLPPGGELASKRNVIEAVYNRLNPYKNDDTDSASTDDMW
modifications: left off: small tags and cut ends
notes: recombinant his-tagged alpha isoform of protein phosphatase 2C cloned from rat striatum
With B1 the “divalent cation concentration for maximal activity” value (phospho-Ser137-DARPP-32 [1]) was 4 to 5 mM, the “Vmax of pNPP hydrolysis, Mn^2+ compared to Mg^2+ (higher)” value ([2]; 20 mM Mn^2+ versus 20 mM Mg^2+) was “approximately 50 fold” and the Vmax ([2]; in the presence of 20 mM Mg^2+) was 0.20 µmol/mg/min. The kcat ([2]; in the presence of 20 mM Mg^2+) was 0.16 s⁻¹, the Km ([2]; in the presence of 20 mM Mg^2+) was 3100 µM and the Vmax ([2]; in the presence of 20 mM Mn^2+) was 7.49 µmol/mg/min. It also gave a kcat ([2]; in the presence of 20 mM Mn^2+) of 5.83 s⁻¹, a Km ([2]; in the presence of 20 mM Mn^2+) of 1530 µM and a Km (phospho-Ser137-DARPP-32 [3]) of 13.1 µM. The Vmax (phospho-Ser137-DARPP-32 [3]) was 0.39 µmol/mg/min and the kcat (phospho-Ser137-DARPP-32 [3]) was 0.31 s⁻¹.
